Experimental findings from patent US20200377597A1 (SUNSHINE GUOJIAN PHARMACEUTICAL SHANGHAI CO LT, published 2020) are described below.

For one assay, the target named is human PD-1 (human, UniProt Q15116 25-288). Kind of assay: cell-based or functional assay.
Assay [1] concerns the target T1, monovalent human PD-1 (purchased from Sino Biological Inc.) (human, UniProt Q15116 25-167).
T1 construct: Bought reagent
Description: SPR Biacore T200; antibody captured on Protein A/G, monovalent human PD-1 as analyte. From the text:
The first method was as follows: A CM5 sensor chip (GE healthcare) was activated by the Amine Coupling Kit (GE healthcare) and the Protein A/G fusion protein (Thermo Pierce) was immobilized on the chip with an amount of 2000 RU. FC3 (Flow cell 3) was a reference channel, and FC4 (Flow cell 4) was a sample channel.
(In general: In SPR one partner is held on a chip, and binding of the other changes the refractive index at the surface.)

A further assay has as its target T2, human PD-1-hFc (human, UniProt Q15116 25-170, biotin-labelled with EZ-Link Sulfo-NHS-Biotin in the second SPR method).
T2 construct: extracellular domain; also called PD-1-hFc antigen; PD-1-hFc fusion protein; not shown: Fc region of human IgG1
Description: SPR Biacore T200; biotinylated PD-1-hFc on SA chip, antibody as analyte. Here is the method:
The second determination method was as follows: PD-1-hFc in Example 1 was biotin-labelled using EZ-Link™ Sulfo-NHS-Biotin (Thermo Fisher Scientific), and the specific operation was carried out according to the instructions provided by the manufacturer. After labeling, the excess biotin labeling reagent was removed by dialysis; the aforementioned biotinylated PD-1-hFc fusion protein was immobilized on a chip using Sensor chip SA (GE healthcare). FC3 (Flow cell 3) was a reference channel, and FC4 (Flow cell 4) was a sample channel.

The target in the next assay is T3, CD28-hFc (UniProt P10747 19-152).
T3 construct: Bought reagent; construct not described; not shown: hFc of a bought product
Description: ELISA, plate coated with CD28-hFc at 2 ug/ml, detection with HRP goat anti-human Fab, OD450. Here is the method: (§1) The protein molecules such as CD28, CTLA-4, and ICOS belong to the same family as PD-1, and the sequences have homology. […] Each well was added with 200 μl of coating solution containing 1% BSA, and blocked at room temperature for 4 hours, then patted dry, and stored in a refrigerator at -20° C. until use. […] 100 μl of HRP-labeled goat anti-human Fab antibody (purchased from Sigma) diluted 1:5000 with PBST was added and incubated at room temperature for 1 hour; washed 3 times with PBST and patted dry. 100 μl of chromogenic solution (ELISA chromogenic solution A and chromogenic solution B were mixed in a volume ratio of 1:1 before use) was added to each well, then 100 μl of 2M H₂SO₄ stop solution was added to each well to stop the reaction. The OD value of each well was immediately measured at a wavelength of 450 nm using a microplate reader (Molecular Device).
For orientation: An ELISA detects its analyte on a solid surface through an enzyme-linked reagent.

The target in another assay is T4, ICOS-hFc (UniProt Q9Y6W8 21-141).
T4 construct: Bought reagent; construct not described; not shown: hFc of a bought product
T4 sequence (looked up): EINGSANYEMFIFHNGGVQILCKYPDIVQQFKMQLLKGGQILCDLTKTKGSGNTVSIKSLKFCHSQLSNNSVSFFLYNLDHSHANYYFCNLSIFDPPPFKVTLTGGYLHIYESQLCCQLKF
Kind of assay: ELISA, plate coated with ICOS-hFc at 2 ug/ml, detection with HRP goat anti-human Fab, OD450. How it is done:
as §1

T1 sequence (Q15116 25-167 limits assumed): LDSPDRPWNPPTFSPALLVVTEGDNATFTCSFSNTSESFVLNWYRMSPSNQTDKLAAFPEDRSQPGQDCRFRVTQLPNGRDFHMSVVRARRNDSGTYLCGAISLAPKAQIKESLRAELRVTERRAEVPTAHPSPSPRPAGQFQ
T2 sequence (Q15116 25-170): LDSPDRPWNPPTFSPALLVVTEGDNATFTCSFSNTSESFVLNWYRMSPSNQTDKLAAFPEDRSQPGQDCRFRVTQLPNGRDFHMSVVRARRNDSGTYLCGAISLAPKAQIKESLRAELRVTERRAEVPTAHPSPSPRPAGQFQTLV
human PD-1, sequence (Q15116 25-288): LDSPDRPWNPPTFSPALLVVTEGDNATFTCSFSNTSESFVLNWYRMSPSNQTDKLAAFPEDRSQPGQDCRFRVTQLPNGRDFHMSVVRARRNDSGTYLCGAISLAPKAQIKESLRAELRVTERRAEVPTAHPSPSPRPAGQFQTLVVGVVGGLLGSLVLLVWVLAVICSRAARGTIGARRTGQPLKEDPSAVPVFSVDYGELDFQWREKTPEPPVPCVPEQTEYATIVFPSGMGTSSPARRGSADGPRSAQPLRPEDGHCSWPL

B1: mAb1-25-Chimeric (antibody, human IgG4 S228P, kappa, V domains shown)
VH: EVKLVESGGDLVKPGGSLKLSCVASGFAFSSYDMSWVRQTPEKRLEWVATISGGGRYTYYPDTVKGRFTISRDNARNTHYLQMSSLRSEDTALYFCASPYGGYFDVWGAGTTVTVSS
VL: DIVLTQSPATLSVTPGARVSLSCRASQSISNFLHWYQQKSHESPRLLIKYASQSISGIPSRFSGSGSGTDFTLSISSVETEDFGMYFCQQSNSWPHTFGAGTKLELKR
notes: Murine variable regions spliced to human IgG4 and Kappa constant regions; expressed in HEK293; also called chimeric antibody of murine antibody No. 1-25
With B1, in the assay with human PD-1, the “Cell proliferation (FIG. 3), MLR EC50” value worked out at 0.00669 µg/mL; the “IFN-γ secretion (FIG. 2), MLR EC50” value was 0.0254 µg/mL; the “IL-2 secretion (FIG. 1), MLR EC50” value came to 0.00995 µg/mL. For the same molecule, in assay [1], the Kd amounted to 0.231 nM, the off-rate constant (koff) came to 4.14e-05 s⁻¹ and the on-rate constant (kon) amounted to 179000 M⁻¹ s⁻¹.

B2: mAb1-15-Humanized (antibody, human IgG4 S228P, kappa, V domains shown)
VH: EVQLVESGGGLVQPGGSLRLSCAASGFTFSSYDMSWVRQAPGKRLEWVATISGGGRYTYYPDSVKGRFTISRDNAKNSLYLQMNSLRAEDTAVYYCANRYDVDWFAYWGQGTLVTVSS
VL: EIVLTQSPATLSLSPGERATLSCRASQSISNNLHWYQQKPGQAPRLLIKYASQSISGIPARFSGSGSGTDFTLTISSLEPEDFAVYFCQQSNSWPLTFGQGTKVEIKR
notes: Human IgG4/Kappa, expressed in HEK293, purified on Protein A; also called humanized antibody No. 1-15
Consider B2, for which, in the assay with human PD-1, the “Cell proliferation (FIG. 3), MLR EC50” value was 0.0172 µg/mL; the “IFN-γ secretion (FIG. 2), MLR EC50” value came to 0.0557 µg/mL; the “IL-2 secretion (FIG. 1), MLR EC50” value came to 0.0165 µg/mL. In the assay with human PD-1-hFc, this molecule came in with an equilibrium dissociation constant (Kd) of 0.0408 nM, a dissociation rate constant (koff) of 3.12e-05 s⁻¹ and a kon of 764000 M⁻¹ s⁻¹. In assay [1], the dissociation constant (Kd) came to 4.28 nM, the koff turned out to be 0.000117 s⁻¹ and the kon came out at 27300 M⁻¹ s⁻¹.

B3: mAb1-25-Humanized (antibody, human IgG4 S228P, kappa, V domains shown)
VH: EVKLVESGGGLVQPGGSLRLSCAASGFAFSSYDMSWVRQAPGKRLEWVATISGGGRYTYYPDTVKGRFTISRDNAKNSHYLQMNSLRAEDTAVYFCASPYGGYFDVWGQGTLVTVSS
VL: EIVLTQSPATLSLSPGERATLSCRASQSISNFLHWYQQKPGQAPRLLIKYASQSISGIPARFSGSGSGTDFTLTISSLEPEDFAVYFCQQSNSWPHTFGQGTKVEIKR
notes: Human IgG4/Kappa, expressed in HEK293E, purified on Protein A; also called humanized antibody No. 1-25
Turning to B3, the binding result with CD28-hFc and in the assay with ICOS-hFc was “no binding (tested: log 3.6 (about 4000 ng/ml))” throughout.

B4: mAb1-15-Chimeric (antibody, human IgG4 S228P, kappa, V domains shown)
VH: EVNLVESGGGLVKPGGSLKLSCAASGFTFSSYDMSWVRQTPEKRLEWVATISGGGRYTYYPDSVKGRFTISRDNAKNNLYLQMSSLRSEDTALYYCANRYDVDWFAYWGQGTLVTVSA
VL: DIVLTQSPATLSVTPGDSVSLSCRASQSISNNLHWYQQKSHESPRLLIKYASQSISGIPSRFSGSGSGTDFTLSINSVETEDFGMYFCQQSNSWPLTFGAGTKLELNR
notes: Murine variable regions spliced to human IgG4 and Kappa constant regions; expressed in HEK293; also called chimeric antibody of murine antibody No. 1-15
B4: in the assay with human PD-1, the “Cell proliferation (FIG. 3), MLR EC50” value came out at 0.0146 µg/mL; the “IFN-γ secretion (FIG. 2), MLR EC50” value turned out to be 0.0284 µg/mL; the “IL-2 secretion (FIG. 1), MLR EC50” value was determined as 0.0236 µg/mL. In assay [1], this molecule registered a Kd of 2.34 nM, a koff of 0.000148 s⁻¹ and a kon of 62900 M⁻¹ s⁻¹.

For orientation: Kd means the constant that tells how readily two partners part at equilibrium. A low value points to a tighter complex. Usually koff stands for a measure of how fast the partners let go of each other. For orientation: kon means the second-order rate constant of association. A high value points to faster complex formation.
